Measurements reported in a protein production outcome set (Wang et al. 2014).

Test: label from the status in PepcDB records

Row | Sequence | protein production
1 | MQVQVSGKHVDVGEALRARVSDEIALSIGKYFDRGGAAEVVVSKEGYAFRVDCSVKLASGQQLISHGSGGDAHAAFDAALAKIDTRIRRYKRRLKSHSAAATAKQVENAAMFVLRAPESDDVDEDWDIEDDHPTGAPAAMVIAETQAAMKTMTVSMAVMELDLTAYPAIVFRNAAHGGISVVYRRPDGNIGWIDPERTKSNGHGSTAS | failed
2 | MQVTFHPRACRFLKTRKAEKPNNEPLYASTSNRETIGDTGMSNPWIAIGALAVVALAIPLTMMAVSSLLRPSVPEQGKRTTYESGEVPTGSSRQIKFNIQYYMVALLFVVFDIETVFIFPWTVIYSDAAAELGMTTALLPMVVFITILAIGLGWAWRNGAVQWVRSPRATKGADTYE | failed
3 | MQYANAYQAYQHNRVSVESPAKLIEMLYEGILRFSSQAKRCIENEDIEKKIYYINRVTDIFTELLNILDYEKGGEVAVYLTGLYTHQIKVLTQANVENDASKIDLVLNVARGLLEAWREIHSDELA | failed
4 | MQYAYPLLAIFIWAGNTVINKLAVGAIFPAEIGFYRWLLAGLLFTPFMLKPVIKHWPEVRPNLWRIAILGVLGMAVYQSLAYFAASLTSATNMGIILSLMPLMSLAMAIAALGQRLTAGALVGAVLSFAGVLVVVSSGSLAALLQHGVNLGDAMMLVATLAYAIYSTLLKKWQLRLPPLVLLYLQVLVAVVVLLPLFLASPKVGPTLQNIPLVLYACLLASMLAPLAWMQAVVRLGPSRTTLFFNLLPLITALIAAVVLHEQLAWFHLVGGLLTLGGVILSERWTTVLGPLAGKPASAGQR | failed
5 | MQYGAIVVTFNRKQLLIESITALLNQTVPPAKIIIIDNHSTDGTKAELQTADILANPSVDYRYLTKNIGGAGGFARGMQIAAADPNLDWASMSDDDAIFEPDYFEKLIAYQQDHPNRQILTGSVYIEDGRLQADQRNRFTNWSTFQAQAVPEREYRGNFEFDQYTFCGVFMSVAVIKQVGVADAGYFIWWDDCEYAVRTAKLSRPVNVSAAKLIHKTALPSLDFKSKFVPDWRLYYGQRNRLITIKRWRANSLVSLGWLLGFYARLAIQLCGPFYRGYRKMVIRVYLEALRDASREREGLNPNFMPGQKFLEHHHHHH | not failed
6 | MQYLIVKYSHQIFVTITILVFNIRFFLLWKNPEKPLVGFWKALPHLNDTMLLFTGLWLMKITHFSPFNAPWLGTKILLLFAYIALGMVMMRARPRSTKFYTVYLLAMCCIACIVYLAKTKVLPF | failed
7 | MQYPPRLGFGTWQAPPEAVQTAVETALMTGYRHIDCAYVYQNEEAIGRAFGKIFKDASSGIKREDVWITSKLWNYNHRPELVREQCKKTMSDLQVDYLDLFLVHWPLAFVRNDVGDLFPKDAEGRAMLEKVPLADTWRAMEQLVEEGLVKHIGVSNYTVPLLADLLNYAKIKPLVNQIEIHPWHPNDATVKFCLDNGIGVTAYSPMGGSYADPRDPSGTQKNVILECKTLKAIADAKGTSPHCVALAWHVKKWNTSMYSVIPKSQTPARIEANFKCTEVQLSDDDMDAINNIHLNKRIRFCDPAIFWKVPLFD | not failed
8 | MQYVMSIIGILVVLGLCFALSNNKSKINFRAIAIMIGFQILIGWFMFGTKIGQQIIIFIGKVFNKLIKLGTTGVDFLFNGIQRDFVFFLNVLLIIVFFSALLSIFSYLGVLPFIVRVVGGAISKITGLPRVESFHAVNSVFFGSSEALIVIKNDLQHFNKNRMFIICCSAMSSVSASVTASYVMMLDAKYVLAALPLNLFSSLIVCSLLTPVDTKKEDEVIQKFDRTLFGDSFIGAMINGALDGLKVAGIVAALMIAFIGVMEVVNYVISAASGAMGHAVTLQQIFGYVLAPFAFLMGIPAQDIIPAGGIMGTKIVLNEFVAILDLKGVAATLSPRTVGIVTVFLISFASISQIGAIVGTIRALSEKQGSVVSKFGWKMLFASTLASILSATIAGLFI | failed
9 | MRADALKRREHIITTTCNLYRTHHHDSLTMENIAEQAGVGVATLYRNFPDRFTLDMACAQYLFNVVISLQLQAISTFPTDPEGVWTSFNQLLFDRGLGSLVPALAPESLDDLPDEVSALRRTTEKNTTTLINLAKQHGLVHHDIAPGTYIVGLITISRPPITALATISENSHKALLGLYLSGLKHGMMANIGEHDGKS | not failed
10 | MRADTRDFRALFLGDAPLLDTRAPVEFAKGAFPGAVNLPLMSDAERHKVGLCYKQQGQDAAIALGHRLVSGAVKAERVAAWAAFAQAHPEGYLYCFRGGLRSQISQAWLREEAGIAYPRVIGGYKAMRGFLLETIEQAIAEC | failed
